Reference: article PMC5354776

Experiments:
[1] = target: CLIP-170 (cytoplasmic linker protein 170) (UniProt P30622); assay: HA immunoprecipitation, CLIP-170 immunoblot; conditions: reference: HA-EB1 wild type; sites S40,T154,T206
[2] = target: p150glued (UniProt Q14203); assay: HA immunoprecipitation, p150glued immunoblot; conditions: reference: HA-EB1 wild type; sites S40,T154,T206

binding against the reference [1]: weaker | binding against the reference [2]: weaker
Substance: EB1 (end-binding protein 1) (from UniProt Q15691) HA-EB1 3A (S40A/T154A/T206A)
